Test results from paper PMC7427332, “Tuning Transcription Factor Availability through Acetylation-Mediated Genomic Redistribution”.

How the values were obtained:
[1] = target: T1, MITF DNA-binding domain WT (bHLH-LZ) (mouse? (MITF mouse cDNA stated for …, UniProt Q08874 287-403)); experiment: fluorescence anisotropy; FA: 10 mM Tris/HCl pH 7.5, 300 mM NaCl, 0.01% Triton X-100, 0.1 mg/mL BSA, 1.33 nM DNA, 25 C, 5 min; EMSA: 25 mM HEPES pH 7.4, 150 mM KCl, 10% glycerol, 200 ug/ml BSA, 5 uM DTT, 20 min, 6% native gel; conditions: protein: recombinant; tags: His (Ni-NTA purified; pETM-11 vector); chain copies: 2; label: 3'-fluorescein on strand 1; blunt
[2] = target: T2, MITF DNA-binding domain K243R (mouse? (MITF mouse cDNA stated for …, UniProt Q08874 287-403, K350R)); experiment: as above; conditions: protein: recombinant; tags: His (Ni-NTA purified; pETM-11 vector); chain copies: 2; label: 3'-fluorescein on strand 1; blunt
[3] = target: T3, MITF DNA-binding domain K243Q (mouse? (MITF mouse cDNA stated for …, UniProt Q08874 287-403, K350Q)); experiment: as above; conditions: protein: recombinant; tags: His (Ni-NTA purified; pETM-11 vector); chain copies: 2; label: 3'-fluorescein on strand 1; blunt
[4] = target: T3, MITF DNA-binding domain K243Q; experiment: as above; conditions: protein: recombinant; tags: His (Ni-NTA purified; pETM-11 vector); chain copies: 2; label: 3'-fluorescein on strand 1; blunt; remark: listed apart in the source
[5] = target: T2, MITF DNA-binding domain K243R; experiment: competition; competing N5 in EMSA; FA: 10 mM Tris/HCl pH 7.5, 300 mM NaCl, 0.01% Triton X-100, 0.1 mg/mL BSA, 1.33 nM DNA, 25 C, 5 min; EMSA: 25 mM HEPES pH 7.4, 150 mM KCl, 10% glycerol, 200 ug/ml BSA, 5 uM DTT, 20 min, 6% native gel; conditions: protein: recombinant; tags: His (Ni-NTA purified; pETM-11 vector); chain copies: 2; blunt
[6] = target: T3, MITF DNA-binding domain K243Q; experiment: as above; conditions: protein: recombinant; tags: His (Ni-NTA purified; pETM-11 vector); chain copies: 2; blunt
[7] = target: T1, MITF DNA-binding domain WT (bHLH-LZ); experiment: as above; conditions: protein: recombinant; tags: His (Ni-NTA purified; pETM-11 vector); chain copies: 2; blunt
[8] = target: T2, MITF DNA-binding domain K243R; experiment: competition; competing N5 in EMSA; low-affinity motif; FA: 10 mM Tris/HCl pH 7.5, 300 mM NaCl, 0.01% Triton X-100, 0.1 mg/mL BSA, 1.33 nM DNA, 25 C, 5 min; EMSA: 25 mM HEPES pH 7.4, 150 mM KCl, 10% glycerol, 200 ug/ml BSA, 5 uM DTT, 20 min, 6% native gel; conditions: protein: recombinant; tags: His (Ni-NTA purified; pETM-11 vector); chain copies: 2; blunt
[9] = target: T1, MITF DNA-binding domain WT (bHLH-LZ); experiment: as above; conditions: protein: recombinant; tags: His (Ni-NTA purified; pETM-11 vector); chain copies: 2; blunt
[10] = target: T3, MITF DNA-binding domain K243Q; experiment: fluorescence anisotropy; FA: 10 mM Tris/HCl pH 7.5, 300 mM NaCl, 0.01% Triton X-100, 0.1 mg/mL BSA, 1.33 nM DNA, 25 C, 5 min; EMSA: 25 mM HEPES pH 7.4, 150 mM KCl, 10% glycerol, 200 ug/ml BSA, 5 uM DTT, 20 min, 6% native gel; conditions: protein: recombinant; tags: His (Ni-NTA purified; pETM-11 vector); chain copies: 2; label: 3'-fluorescein on strand 1; blunt; remark: listed apart in the source

T2 sequence (Q08874 287-403 K350R): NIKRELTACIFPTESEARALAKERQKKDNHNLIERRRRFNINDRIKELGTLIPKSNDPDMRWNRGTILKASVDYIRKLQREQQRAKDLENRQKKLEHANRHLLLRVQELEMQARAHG
T3 sequence (Q08874 287-403 K350Q): as the sequence (Q08874 287-403 K350R) above, with R64Q counted along it
T1 sequence (Q08874 287-403): as the sequence (Q08874 287-403 K350R) above, with R64K counted along it

B1: Consensus CLEAR box FA probe (dsDNA)
DNA 1: GAGATCACGTGATGAC
DNA 2: GTCATCACGTGATCTC
In the case of B1, the binding result [1] is reported as “binds”, the binding signal [2] is reported as ~4 fold lower affinity than WT protein on same site and the binding signal [3] is reported as ~7 fold lower affinity than WT protein on same site.

B2: E-box FA probe (dsDNA)
DNA 1: GAGACCACGTGTTGAC
DNA 2: GTCAACACGTGGTCTC
In the case of B2, the binding signal [2] is reported as ~4 fold lower affinity than WT protein on same site and the binding signal [4] is reported as 21 fold lower affinity than WT protein on same site.

B3: TCACGTGA cold competitor (dsDNA)
DNA 1: CTAGACTTGTGGAGATCACGTGATGACTTCCTGATTCCT
DNA 2: AGGAATCAGGAAGTCATCACGTGATCTCCACAAGTCTAG
B3: binds [5]; binds [6]; binds [7].

B4: TCACGTTA cold competitor (dsDNA)
DNA 1: CTAGACTTGTGGAGATCACGTTATGACTTCCTGATTCCT
DNA 2: AGGAATCAGGAAGTCATAACGTGATCTCCACAAGTCTAG
B4: no binding [6]; binds [8]; binds [9].

B5: M-box FA probe (dsDNA)
DNA 1: GAGATCATGTGTTGAC
DNA 2: GTCAACACATGATCTC
With B5 the binding signal [2] was ~4 fold lower affinity than WT protein on same site and the binding signal [10] was 35 fold lower affinity than WT protein on same site.
